US20240400652A1 (VIR BIOTECHNOLOGY, published 2024)

B1: SARS-CoV-2 S304 (antibody, V domains shown)
VH: EVQLVESGGGLVQPGGSLRLSCAASGFTFSSYDMHWVRQTTGKGLEWVSTIGTAGDTYYPDSVKGRFTISREDAKNSLYLQMNSLRAGDTAVYYCARGDSSGYYYYFDYWGQGTLLTVSS
VL: DIQMTQSPSSLSAAVGDRVTITCRASQSIGSYLNWYQQKPGKAPKLLIYAASSLQSGVPSRFSGSGSGTDFTLTISSLQPEDFAIYYCQQSYVSPTYTFGPGTKVDIK
B2: SARS-CoV-2 S315 (antibody, V domains shown)
VH: EVQLVESGGGLVQPGGSLRLSCAASGFTFSNYWMTWVRQAPGKGLEWVANIKQDGSEKYYVDSVKGRFTISRDNAKNSLYLQMNSLRAEDTAVYYCARDLWWNDQAHYYGMDVWGQGTTVTVSS
VL: SYELTQPPSVSVSPGQTARITCSGDAFPNQYAYWYQQKPGQAPVMLIYKDSERPSGIPERFFGSSSGTTVTLTIRGVQAEDEADYYCQSADSSGTVFGGGTKLTVL

Target: SARS-CoV-2 Spike protein on pseudotyped virus (SARS-CoV-2, UniProt P0DTC2 14-1273)
Experiment: cell-based or functional assay

| Binder | IC50, neutralization of SARS-CoV-2pp, DBT-ACE2 cells [µg/mL] | IC50, neutralization of SARS-CoV-2pp, DBT-ACE2 cells (further assays) [µg/mL] |
| --- | --- | --- |
| B1 | ~17 |  |
| B2 |  | 25.1 |
